Experimental data published in the supplement of paper PMC10724198.
± gives the standard deviation of the averaged measurements.

Key:
Saccharomyces cerevisiae [1] = assay: protein stability index of tFT-peptide fusion (C-terminal peptide) (PSI (0-1 scale)); higher = more stable (slower turnover); details: genetic background: wild type; temperature: 30 C
Saccharomyces cerevisiae [2] = assay: as above
Protocol: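 MPS profiling in S. cerevisiae of the tFT-X12 degron library: putative degron peptides plus stable controls, 12 aa, fused to the C-terminus of a sfGFP-mCherry timer. Cells are FACS-sorted into 8 mCherry/sfGFP bins and deep-sequenced. PSI runs from 0 (unstable) to 1 (stable). Backgrounds are wild type, das1Δ and doa10Δ at 30 °C, and wild type, das1Δ, cdc34-1 and cdc53-1 at 37 °C; 2-3 technical replicates each.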

[3] = genetic background: cdc34-1, temperature: 37 C
[4] = genetic background: cdc53-1, temperature: 37 C
[5] = genetic background: das1 deletion, temperature: 30 C
[6] = genetic background: das1 deletion, temperature: 37 C
[7] = genetic background: doa10 deletion, temperature: 30 C
[8] = genetic background: wild type, temperature: 30 C
[9] = genetic background: wild type, temperature: 37 C
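Also: PSI is a weighted mean of sequencing reads over stability bins, variants kept only with over 10 reads, mCherry proximal and sfGFP distal, peptide attached via GGGS linker.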

Sequence | protein stability index (Saccharomyces cerevisiae [1]) | protein stability index (Saccharomyces cerevisiae [2]; [3]) | protein stability index (Saccharomyces cerevisiae [2]; [4]) | protein stability index (Saccharomyces cerevisiae [2]; [5]) | protein stability index (Saccharomyces cerevisiae [2]; [6]) | protein stability index (Saccharomyces cerevisiae [2]; [7]) | protein stability index (Saccharomyces cerevisiae [2]; [8]) | protein stability index (Saccharomyces cerevisiae [2]; [9])
SYVFEFIVSVVF | 0.315 ± 0.0044 | 0.208 ± 0.016 | 0.347 ± 0.011 | 0.253 ± 0.03 | 0.373 ± 0.015 | 0.23 ± 0.0064 | 0.255 ± 0.014 | 0.341 ± 0.016
SYVVVFVIFCVG | 0.224 ± 0.099 | 0.1826 ± 0.00046 | 0.281 ± 0.028 | 0.206 ± 0.03 | 0.3424 ± 0.0014 | 0.173 ± 0.0049 | 0.214 ± 0.015 | 0.301 ± 0.0081
TDFICLLWLLHW | 0.565 ± 0.12 | 0.552 ± 0.035 | 0.535 ± 0.058 | 0.422 ± 0.02 | 0.5698 ± 0.0043 | 0.3864 ± 0.0017 | 0.41 ± 0.032 | 0.535 ± 0.014
TFRVRRQKNRNM | 0.236 ± 0.012 | 0.628 ± 0.021 | 0.692 ± 0.039 | 0.631 ± 0.022 | 0.725 ± 0.013 | 0.0838 ± 0.015 | 0.099 ± 0.013 | 0.217 ± 0.012
TLFSFLLVFVFG | 0.411 ± 0.017 | 0.209 ± 0.0076 | 0.315 ± 0.0035 | 0.228 ± 0.035 | 0.386 ± 0.0047 | 0.185 ± 0.019 | 0.206 ± 0.031 | 0.35 ± 0.0049
TLLMVSMTVRPL | 0.38 ± 0.0051 | 0.3005 ± 0.00077 | 0.379 ± 0.02 | 0.274 ± 0.022 | 0.411 ± 0.011 | 0.26 ± 0.0094 | 0.272 ± 0.022 | 0.398 ± 0.036
TPPLPTTPTLNS | 0.732 ± 0.025 | 0.641 ± 0.022 | 0.713 ± 0.022 | 0.718 ± 0.027 | 0.703 ± 0.021 | 0.722 ± 0.025 | 0.71 ± 0.011 | 0.684 ± 0.021
TPRQYVVSLSLC | 0.19 ± 0.067 | 0.579 ± 0.027 | 0.657 ± 0.033 | 0.587 ± 0.039 | 0.703 ± 0.015 | 0.131 ± 0.0045 | 0.123 ± 0.0062 | 0.227 ± 0.0063
TRVVSPNVILMC | 0.505 ± 0.017 | 0.6679 ± 0.00086 | 0.7417 ± 0.0073 | 0.61 ± 0.027 | 0.725 ± 0.019 | 0.5135 ± 0.0048 | 0.526 ± 0.022 | 0.673 ± 0.009
TTSHFCVVLVSV | 0.32 ± 0.016 | 0.283 ± 0.042 | 0.307 ± 0.016 | 0.232 ± 0.039 | 0.382 ± 0.009 | 0.182 ± 0.012 | 0.217 ± 0.032 | 0.356 ± 0.013
